Experimental findings from paper PMC9897471 are described below.

Data set [1] deals with T1, GST-BRCA1 BRCT WT (UniProt P38398 1582-1863). The data set is described as follows: EMSA. (In general: A gel shift assay detects complexes by their altered migration in electrophoresis.)
In data set [2] the target is T1, GST-BRCA1 BRCT WT. Put plainly: EMSA. This is another data set of the same source.

Read-outs that look alike come from different tables or passages of the source.

T1 sequence (P38398 1582-1863): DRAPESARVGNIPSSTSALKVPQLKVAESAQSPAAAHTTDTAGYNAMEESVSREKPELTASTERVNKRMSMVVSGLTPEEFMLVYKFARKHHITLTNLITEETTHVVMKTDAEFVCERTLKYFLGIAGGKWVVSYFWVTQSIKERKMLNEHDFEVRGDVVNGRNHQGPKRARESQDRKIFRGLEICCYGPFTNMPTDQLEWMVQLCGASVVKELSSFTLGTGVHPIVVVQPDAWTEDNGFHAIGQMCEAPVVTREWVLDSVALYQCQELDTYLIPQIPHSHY

B1: non-rRNA bottom ssRNA (ssRNA)
RNA: AUCCCAGCACCAGAUUCAGCAAUUAAGCUCUAAGCCAUGAAUUCAAAUGACCUCUUAUCA
As to B1, in data set [1], the binding result is on record as “binds”.

B2: non-rRNA dsRNA (bottom/top) (dsRNA)
RNA 1: AUCCCAGCACCAGAUUCAGCAAUUAAGCUCUAAGCCAUGAAUUCAAAUGACCUCUUAUCA
RNA 2: UGAUAAGAGGUCAUUUGAAUUCAUGGCUUAGAGCUUAAUUGCUGAAUCUGGUGCUGGGAU
Regarding B2, the binding result in data set [1] is given as “no binding”.

B3: non-rDNA bottom ssDNA (ssDNA)
DNA: ATCCCAGCACCAGATTCAGCAATTAAGCTCTAAGCCATGAATTCAAATGACCTCTTATCA
As for B3, in data set [2], the binding result is on record as “binds”.
